Laboratory results published in the nanobody polyreactivity screen of Harvey et al. (2022).

Assay: yeast display, Sf9 membrane polyspecificity reagent, FACS + sequencing; frameworks hold sequencing errors
Procedure, shortened: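 In a synthetic yeast display library (Saccharomyces cerevisiae BJ5465), nanobody expression was induced with galactose for 36–48 hours. FACS gates were set low and high (top ~1%) using anti-HA fluorescence for expression and streptavidin fluorescence for binding of the Sf9 membrane reagent. Each polyreactivity label is drawn from the gate of origin.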
With “QVQLVESGGGLVQAGGSLRLSCAASGITFGANAMGWYRQAPGKERELVADITWSGGDTYYADSVKGRFTISRDNAKNTVYLQMNSLKPEDTAVYYCNALQPGLGSPLGEYDYWGQGTQVTVSS” the “polyreactivity (PSR sort gate)” value was “low polyreactivity”.
For “QVQLVESGGGLVQAGGSLRLSCAASGITFGCNAMGWYRQAPGKEREFVAAITFSDGSTRYADSVKGRFTISRDNAKNTVYLQMNSLKPEDTAVYYCAADTWSDKYDYWGQGTQVTVSS”, the “polyreactivity (PSR sort gate)” value was “low polyreactivity”.
In the case of “QVQLVESGGGLVQAGGSLRLSCAASGITFGDNAMGWYRQAPGKERELVAAITLSDVDTYADSVKGRFTISRDNAKNTVYLQMNSLKPEDTAVYYCAADYYAHQDYRFDYWGQGTQVTVSS”, the “polyreactivity (PSR sort gate)” value is reported as “low polyreactivity”.
With “QVQLVESGGGLVQAGGSLRLSCAASGITFGFNAMGWYRQAPGKERELVAAIRWGSGRTYYADSVKGRFTISRDNAKNTVYLQMNSLKPEDTAVYYCAAAPTTGKRPGYYYWGQGTQVTVSS” the “polyreactivity (PSR sort gate)” value was “high polyreactivity”.
With “QVQLVESGGGLVQAGGSLRLSCAASGITFGFYTMGWYRQAPGKERELVAAITSGGSTSYADSVKGRFTISRDNAKNTVYLQMNSLKPEDTAVYYCAADYLNPFPPYQYWKQSYDYWGQGTQVTVSS” the “polyreactivity (PSR sort gate)” value was “low polyreactivity”.
For “QVQLVESGGGLVQAGGSLRLSCAASGITFGHYAMGWYRQAPGKERELVAAINFSGGSTYYADSVKGRFTISRDNAKNTVYLQMNSLKPEDTAVYYCAAKYSRSLRYPWYNYWGQGTQVTVSS”, the “polyreactivity (PSR sort gate)” value was “high polyreactivity”.
With “QVQLVESGGGLVQAGGSLRLSCAASGITFGLYSMGWYRQAPGKQRELVASISQSGGSTYYADSVKGRFTISRDNAKNTVYLQMNSLKPEDTAVYYCNARRRFWDFSTRGYDSWGQGTQVTVSS” the “polyreactivity (PSR sort gate)” value was “high polyreactivity”.
With “QVQLVESGGGLVQAGGSLRLSCAASGITFGNYAMGWYRQAPGKARELVAAITGSGGRTYYADSVKGRFTISRDNANNTVYLQMNRLKPEYTAVYYCNRRQYGRKKQYDYWGQGTQVTVSS” the “polyreactivity (PSR sort gate)” value was “high polyreactivity”.
In the case of “QVQLVESGGGLVQAGGSLRLSCAASGITFGNYAMGWYSQAPGKERELVASFSWNVGSTYYADSVKGRFTISRDNAKNTVYLQMNSLKPEDTAVYYCARGYDRPRVATFHRFDYWGQGTQVTVSS”, the “polyreactivity (PSR sort gate)” value is reported as “low polyreactivity”.
With “QVQLVESGGGLVQAGGSLRLSCAASGITFGRNTKGWYRQAPGKERELVAAIDSGGNTYADSVKGRFTISRDNAKNTVYLQMNSLKPEDTAVYYCAADSYPAYLGFVGFDYWVQGTQVTVSS” the “polyreactivity (PSR sort gate)” value was “low polyreactivity”.
With “QVQLVESGGGLVQAGGSLRLSCAASGITFGRNTKGWYRQAPGKERELVAAIDSGGNTYADSVKGRFTISRDNAKNTVYLQMNSLKPEDTAVYYCNAGYVHSFDYWGQGTQVTVSS” the “polyreactivity (PSR sort gate)” value was “low polyreactivity”.
For “QVQLVESGGGLVQAGGSLRLSCAASGITFGRNTMGWYRQAPGKERELVAAIDSGGNTYAVSVKGRFTISRDNAKNTVYLQMNSLKPEDTAVYYCAVDGGEYSYYGTYDYWGQGTQVTVSS”, the “polyreactivity (PSR sort gate)” value was “low polyreactivity”.
For “QVQLVESGGGLVQAGGSLRLSCAASGITFGRNTMGWYRQAPGKERELVAAITYRSGRTYYADSVKGRFTISRDTAKNTVYLQMNILKPEDTAVYYCNTVSPYYDYDYWGQGTQVTVSS”, the “polyreactivity (PSR sort gate)” value was “high polyreactivity”.
With “QVQLVESGGGLVQAGGSLRLSCAASGITFGRYAMGWYRQAPGKERELVAAISWSGGSTYYADSVKGRFTLSRDNAKNTVYLQMNSLKPEDTAVYYCAVEWYYTSYHIRFYRDNYWGQGTQVTVSS” the “polyreactivity (PSR sort gate)” value was “high polyreactivity”.
For “QVQLVESGGGLVQAGGSLRLSCAASGITFGRYAMGWYRQAPGKERELVAAITTRGGSTYYADSVKGRFTISRDNAKNTVYLQMNSLKPEDTAVYYCAADYRWAGRYYYWGQGTQVTVSS”, the “polyreactivity (PSR sort gate)” value was “high polyreactivity”.
For “QVQLVESGGGLVQAGGSLRLSCAASGITFGWNAMGWYRPAPGKERELVAAITEDGDSTYYADSVKGRFTISRDNAMNTVYLQMNSLKPEDTAGYYCAAEYYDVYTYVQYDSWGQGTQVTVSS”, the “polyreactivity (PSR sort gate)” value was “high polyreactivity”.
For “QVQLVESGGGLVQAGGSLRLSCAASGITFHRYAMGWYRQAPGKERELVAAISGSGGNTYYADSVKGRFTISRDNAKNTVYLQMNILKPEDTAVYYCAAYPSWYVYPKYYYWGQGTQVTVSS”, the “polyreactivity (PSR sort gate)” value was “high polyreactivity”.
In the case of “QVQLVESGGGLVQAGGSLRLSCAASGITFHRYAMGWYRQAPGKERELVAAITKRGGSTNYADSVKGRFTISRDNAKNTVYLQMNSLKPEDTAVYYCNARSTWPSGRYAHYRRYYYWGQGTQVTVSS”, the “polyreactivity (PSR sort gate)” value is reported as “high polyreactivity”.
In the case of “QVQLVESGGGLVQAGGSLRLSCAASGITFHWYAMGWYRQAPGKERELVAAITSSGDSTFYADSVKGRFTISRDNAKNSVYLQMNSLKPEDTAVYYCAVDVYVGYWGRLYYWGQGTQVTVSS”, the “polyreactivity (PSR sort gate)” value is reported as “low polyreactivity”.
With “QVQLVESGGGLVQAGGSLRLSCAASGITFIPNAMGWYRQAPGKERELVAAISISGGRTYYADSVKGRFTISRDNAKNTVYLQMNSLKPEVTAVYYCAVDSWSRVQGWLAHNYDYWGQGTQVTVSS” the “polyreactivity (PSR sort gate)” value was “low polyreactivity”.
In the case of “QVQLVESGGGLVQAGGSLRLSCAASGITFIRYAMGWYRQAPGKERELVAAIDWDGSSTYYADSVKGRFTISRDNAKNTGYLQMNSLKPEDTSVYYCNTDYTGPDGTDDYDYWGQGTQVTVSS”, the “polyreactivity (PSR sort gate)” value is reported as “low polyreactivity”.
In the case of “QVQLVESGGGLVQAGGSLRLSCAASGITFIRYAMGWYRQAPGKERELVAVITRSGGRTYYADSVKGRFTISRDNAKNTVYLQMNILKPEDTAVYYCAARAYGYDEYEYWGQGTQVTVSS”, the “polyreactivity (PSR sort gate)” value is reported as “high polyreactivity”.
For “QVQLVESGGGLVQAGGSLRLSCAASGITFIYYAMGSYRQAPGKERELVAAISKSGGRTYYADSVKGRFTISRDNAKNTVYLQMNSLKPEDSAVYYCNKLVGDDTSLYDYWGQGTQVTVSS”, the “polyreactivity (PSR sort gate)” value was “high polyreactivity”.
For “QVQLVESGGGLVQAGGSLRLSCAASGITFIYYMGWYRQAPGKERELVAAITWSGGSTYYADSVKGRFTISRDNAKNTVLLQMNSLKPVDNAVYYCAAVRRAEEYDYWGQGTQVTVSS”, the “polyreactivity (PSR sort gate)” value was “low polyreactivity”.
With “QVQLVESGGGLVQAGGSLRLSCAASGITFKANAMGWYRQAPGKERELVAAIRQNGGDTYYADSVKGRFTISRDNAKNTVYLQMNSLKPEDTAVYYCNARLRGAGGYTFYYWGQGTQVTVSS” the “polyreactivity (PSR sort gate)” value was “high polyreactivity”.
In the case of “QVQLVESGGGLVQAGGSLRLSCAASGITFKGYTMGWYRQAPGTERELVATISRGGRTYADSVKGRFTISRDNAKNTVYLQMNSLKPEDTAVYYCAADKYWAQNDYWGQGTQVTVSS”, the “polyreactivity (PSR sort gate)” value is reported as “low polyreactivity”.
In the case of “QVQLVESGGGLVQAGGSLRLSCAASGITFKSYDMGWYRQAPGKERELVAAITSGVSTHYADSVKGRFTISRDNAKNTVYLQMNSLKPEDTAVYYCAADYTWYYPYWIMDYWGQGTQVTVSS”, the “polyreactivity (PSR sort gate)” value is reported as “low polyreactivity”.
For “QVQLVESGGGLVQAGGSLRLSCAASGITFKWNDMGWYRQAPGKEREFVAAITGSTGSTFYAGSVKGRFTISRDNAKNTVYLQMNSLKPEDTAVYYCAAGPWFYYWGQGTQVTVSS”, the “polyreactivity (PSR sort gate)” value was “low polyreactivity”.
In the case of “QVQLVESGGGLVQAGGSLRLSCAASGITFKYYGMGWYRQAPGKERELVAAISWSGASTYYADSVKRRFTISRDNAKNTVYLQMNSLKPEDTAVYYCAAVRRRGQRGRLDYWGQGTQVTVSS”, the “polyreactivity (PSR sort gate)” value is reported as “high polyreactivity”.
With “QVQLVESGGGLVQAGGSLRLSCAASGITFKYYVMGWYRQAPGKERELVAAISYDGGSTYYADSVKGRFTISRDNAKNTVYLQMNSLKPEDTAVYYCAAPVWIDGDESGYEYDYWGQGTQVTVSS” the “polyreactivity (PSR sort gate)” value was “low polyreactivity”.
In the case of “QVQLVESGGGLVQAGGSLRLSCAASGITFLAYAMGWYRQAPGKERELVAGISKSGGNTYYADSVKGRFTISRDNAKNTVYLQMNSLKPEDTAVYYCAARYRLTYFDANYRYGYWGQGTQVTVSS”, the “polyreactivity (PSR sort gate)” value is reported as “high polyreactivity”.
In the case of “QVQLVESGGGLVQAGGSLRLSCAASGITFLPYAMGWYRPAPGKERELVAAITRGGGSTYADSVKGRFTISRDNAKNTVYLQMYSLKPEDTAVYYCNAKGRGWTAQYDYWGQGTQVTVSS”, the “polyreactivity (PSR sort gate)” value is reported as “low polyreactivity”.
With “QVQLVESGGGLVQAGGSLRLSCAASGITFLSNAMGWYRQAPGKERELVAAIDWRGDSTYYADSVKGRFTISRDNAKNTGYLQMNRLKPEDTAVYYCNADISGSGQWDGYDYWGQGTQVTVSS” the “polyreactivity (PSR sort gate)” value was “low polyreactivity”.
With “QVQLVESGGGLVQAGGSLRLSCAASGITFNGYVMGWYRQAPGKERELVAAITSGGSTNYADSVKGRFTISRDNAKNTVYLQMNSLKPEDTAVYYCAARYKAYWQLYDYWGQGTQVTVSS” the “polyreactivity (PSR sort gate)” value was “high polyreactivity”.
For “QVQLVESGGGLVQAGGSLRLSCAASGITFNHYTMGWYRQAPGKERELVAAISSRGSTTYYADSVKGRFTISRDNAKNTVYLQMNSLKPEDTAVYYCAARYPTYYRPRYRGRPGYDYWGKGTQVTVSS”, the “polyreactivity (PSR sort gate)” value was “high polyreactivity”.
In the case of “QVQLVESGGGLVQAGGSLRLSCAASGITFNLYAMGWYRQAPGKERELVASINSGGSPYYADSVKGRFTISRDNAKNTVYLQMNSLKPEDTAVYYCAAETSYYYRGYWKSYDYWGQGTQVTVSS”, the “polyreactivity (PSR sort gate)” value is reported as “high polyreactivity”.
For “QVQLVESGGGLVQAGGSLRLSCAASGITFNPYGMGWYRPAPGKERELVADITCGGITDYADCVKGRFTIARDNAKNTVYLHKNSLKPEETAVYYCATGDLFVYYWCYVVRLYDYWGQGTQVTVSS”, the “polyreactivity (PSR sort gate)” value was “low polyreactivity”.
In the case of “QVQLVESGGGLVQAGGSLRLSCAASGITFNRYAMGGYRQAPGKERELVASITSGGRTNYADSVKGRFTISRDNAKNTVYLQMNSLKPEDTAVYYCAVRWVRSRSSSLRKANYYWGQGTIVTVSS”, the “polyreactivity (PSR sort gate)” value is reported as “high polyreactivity”.
With “QVQLVESGGGLVQAGGSLRLSCAASGITFNYYAMGWYRQAPGKERELVAAITDDGNTNYADSVKGRFTISRDNAKNTVYLQMNSLKPEDTAVYYCAADLLGIPDYEYWGQGTQVTVSS” the “polyreactivity (PSR sort gate)” value was “low polyreactivity”.
For “QVQLVESGGGLVQAGGSLRLSCAASGITFPDYAMGWYRQAPGKERELVATISSSGGNTYYADSVKGRFTISRDNAKNTVYLQMNSLKPEETAVYYCATVSYYCGYDYWGQGTQVTVSS”, the “polyreactivity (PSR sort gate)” value was “low polyreactivity”.
With “QVQLVESGGGLVQAGGSLRLSCAASGITFPFYAMGWYRQAPGKERELVAAISRRGGRTYYADSVKGRFTISRDNAKNTVYLQMNSLKPEDTAVYYCAAANGSADGDYWGQGTQVTVSS” the “polyreactivity (PSR sort gate)” value was “high polyreactivity”.
With “QVQLVESGGGLVQAGGSLRLSCAASGITFPLYVMGWSRQAPGKERELVAAISASGGSTYADSVKGRFTISRDNAKNTVYLQMNSLKPEDTAVYYCNADVYVGYEYDYWGQGTQVTVSS” the “polyreactivity (PSR sort gate)” value was “low polyreactivity”.
In the case of “QVQLVESGGGLVQAGGSLRLSCAASGITFPQYAMGWYRQAPGKERELVAAITSGGSTNYADSVKGRFTISRDNGKNTVYLQMNSLKPEDTGVYYCNTAGYYWLHYTMDYWGQGTQVTVSS”, the “polyreactivity (PSR sort gate)” value is reported as “high polyreactivity”.
